Laboratory results as given in patent US11781164B2, “Demethylation of reticuline and derivatives thereof with fungal cytochrome P450” (priority 2017, dated 2023).

Experiments:
[1] = system: Thamnostylum piriforme ATCC 8992; assay: Fungal bioconversion of thebaine to northebaine by Thamnostylum piriforme cultures; assay type: cell-based
Method: (§1) Cunninghamella echinulata ATCC 9244 was propagated on potato dextrose agar at room temperature. Mature cultures on plates (7-10 days) were used for the preparation of concentrated spore suspensions. Spores were harvested by flooding the lawn culture with a sterile solution containing 0.9% sodium chloride and 0.01% Tween 80 (10 ml/plate), scratching them from the hyphae with the aid of a sterile loop and filtering the suspension through sterile cotton to remove hyphal fragments. Thamnostylum piriforme ATCC 8992 was propagated on malt extract agar (CM0059) at room temperature and spore suspensions were prepared as indicated above. […]
(§2) Media was inoculated with 0.25 ml of freshly-prepared spore suspensions. […] Eleven days after thebaine addition, supernatants were collected and analyzed by LC-MS. […] Thebaine and northebaine were monitored in the supernatants, reaching a conversion level of 25% on day 12 after substrate addition (FIG. 2).

[2] = system: Cunninghamella echinulata ATCC 9244; assay: Fungal bioconversion of thebaine to northebaine by Cunninghamella echinulata cultures; assay type: cell-based; conditions: 0.5 mg/ml thebaine added after 48 h of growth; eleven days after thebaine addition; supernatant, LC-MS
Method: as §1, §2

oripavine = assay: In vitro N-demethylation of oripavine by mammalian cytochrome P450s in crude yeast cell lysates; conditions: crude cell extract with human CPR and cytochrome b5; 0.2 mM substrate, pH 7, 30° C., approximately 20 hours; compared to negative control strain without cytochrome P450s
salutaridine = assay: In vitro N-demethylation of salutaridine by mammalian cytochrome P450s in crude yeast cell lysates; conditions: crude cell extract with human CPR and cytochrome b5; 0.2 mM substrate, pH 7, 30° C., approximately 20 hours; compared to negative control strain without cytochrome P450s
codeine = assay: In vitro N-demethylation of codeine by mammalian cytochrome P450s in crude yeast cell lysates; conditions: crude cell extract with human CPR and cytochrome b5; 0.2 mM substrate, pH 7, 30° C., approximately 20 hours; compared to negative control strain without cytochrome P450s
salutaridinol = assay: In vitro N-demethylation of salutaridinol by mammalian cytochrome P450s in crude yeast cell lysates; conditions: crude cell extract with human CPR and cytochrome b5; 0.2 mM substrate, pH 7, 30° C., approximately 20 hours; compared to negative control strain without cytochrome P450s
thebaine = assay: In vitro N-demethylation of thebaine by mammalian cytochrome P450s in crude yeast cell lysates; conditions: crude cell extract with human CPR and cytochrome b5; 0.2 mM substrate, pH 7, 30° C., approximately 20 hours; compared to negative control strain without P450s

`COC1=CC=C2[C@H]3Cc4ccc(OC)c5c4[C@@]2(CCN3C)[C@H]1O5` [Thebaine, thebaine] was tested, and the “conversion of thebaine to northebaine” value ([1]; 0.5 mg/ml thebaine added after 48 h of growth, eleven days after thebaine addition, supernatant, LC-MS) was 16%, the “conversion level of thebaine to northebaine” value ([1]; new T. piriforme cultures, day 12 after substrate addition) was 25% and the “conversion of thebaine to northebaine” value [2] was 6%.

B1: Hs_CYP2C8: Cytochrome P450 2C8 (P10632), Homo sapiens (protein, UniProt P10632 1-490, looked up)
Cytochrome P450 2C8: MEPFVVLVLCLSFMLLFSLWRQSCRRRKLPPGPTPLPIIGNMLQIDVKDICKSFTNFSKVYGPVFTVYFGMNPIVVFHGYEAVKEALIDNGEEFSGRGNSPISQRITKGLGIISSNGKRWKEIRRFSLTTLRNFGMGKRSIEDRVQEEAHCLVEELRKTKASPCDPTFILGCAPCNVICSVVFQKRFDYKDQNFLTLMKRFNENFRILNSPWIQVCNNFPLLIDCFPGTHNKVLKNVALTRSYIREKVKEHQASLDVNNPRDFIDCFLIKMEQEKDNQKSEFNIENLVGTVADLFVAGTETTSTTLRYGLLLLLKHPEVTAKVQEEIDHVIGRHRSPCMQDRSHMPYTDAVVHEIQRYSDLVPTGVPHAVTTDTKFRNYLIPKGTTIMALLTSVLHDDKEFPNPNIFDPGHFLDKNGNFKKSDYFMPFSAGKRICAGEGLARMELFLFLTTILQNFNLKSVDDLKNLNTTAVTKGIVSLPPSYQICFIPV
In the case of B1, the “in vitro N-demethylation activity on oripavine” value (oripavine) is reported as “detected”, the “in vitro N-demethylation activity on salutaridine” value (salutaridine) is reported as “detected” and the “in vitro N-demethylation activity on codeine” value (codeine) is reported as “detected”. For the same molecule, the “in vitro N-demethylation activity on salutaridinol” value (salutaridinol) was “detected” and the “in vitro N-demethylation activity on Thebaine” value (thebaine) was “detected”.
